# Patent US20260347449 (published 2026)
# Read-outs that look alike come from different tables or passages of the source.
# T1: cynomolgus C5 (cynomolgus)
# T1 chain: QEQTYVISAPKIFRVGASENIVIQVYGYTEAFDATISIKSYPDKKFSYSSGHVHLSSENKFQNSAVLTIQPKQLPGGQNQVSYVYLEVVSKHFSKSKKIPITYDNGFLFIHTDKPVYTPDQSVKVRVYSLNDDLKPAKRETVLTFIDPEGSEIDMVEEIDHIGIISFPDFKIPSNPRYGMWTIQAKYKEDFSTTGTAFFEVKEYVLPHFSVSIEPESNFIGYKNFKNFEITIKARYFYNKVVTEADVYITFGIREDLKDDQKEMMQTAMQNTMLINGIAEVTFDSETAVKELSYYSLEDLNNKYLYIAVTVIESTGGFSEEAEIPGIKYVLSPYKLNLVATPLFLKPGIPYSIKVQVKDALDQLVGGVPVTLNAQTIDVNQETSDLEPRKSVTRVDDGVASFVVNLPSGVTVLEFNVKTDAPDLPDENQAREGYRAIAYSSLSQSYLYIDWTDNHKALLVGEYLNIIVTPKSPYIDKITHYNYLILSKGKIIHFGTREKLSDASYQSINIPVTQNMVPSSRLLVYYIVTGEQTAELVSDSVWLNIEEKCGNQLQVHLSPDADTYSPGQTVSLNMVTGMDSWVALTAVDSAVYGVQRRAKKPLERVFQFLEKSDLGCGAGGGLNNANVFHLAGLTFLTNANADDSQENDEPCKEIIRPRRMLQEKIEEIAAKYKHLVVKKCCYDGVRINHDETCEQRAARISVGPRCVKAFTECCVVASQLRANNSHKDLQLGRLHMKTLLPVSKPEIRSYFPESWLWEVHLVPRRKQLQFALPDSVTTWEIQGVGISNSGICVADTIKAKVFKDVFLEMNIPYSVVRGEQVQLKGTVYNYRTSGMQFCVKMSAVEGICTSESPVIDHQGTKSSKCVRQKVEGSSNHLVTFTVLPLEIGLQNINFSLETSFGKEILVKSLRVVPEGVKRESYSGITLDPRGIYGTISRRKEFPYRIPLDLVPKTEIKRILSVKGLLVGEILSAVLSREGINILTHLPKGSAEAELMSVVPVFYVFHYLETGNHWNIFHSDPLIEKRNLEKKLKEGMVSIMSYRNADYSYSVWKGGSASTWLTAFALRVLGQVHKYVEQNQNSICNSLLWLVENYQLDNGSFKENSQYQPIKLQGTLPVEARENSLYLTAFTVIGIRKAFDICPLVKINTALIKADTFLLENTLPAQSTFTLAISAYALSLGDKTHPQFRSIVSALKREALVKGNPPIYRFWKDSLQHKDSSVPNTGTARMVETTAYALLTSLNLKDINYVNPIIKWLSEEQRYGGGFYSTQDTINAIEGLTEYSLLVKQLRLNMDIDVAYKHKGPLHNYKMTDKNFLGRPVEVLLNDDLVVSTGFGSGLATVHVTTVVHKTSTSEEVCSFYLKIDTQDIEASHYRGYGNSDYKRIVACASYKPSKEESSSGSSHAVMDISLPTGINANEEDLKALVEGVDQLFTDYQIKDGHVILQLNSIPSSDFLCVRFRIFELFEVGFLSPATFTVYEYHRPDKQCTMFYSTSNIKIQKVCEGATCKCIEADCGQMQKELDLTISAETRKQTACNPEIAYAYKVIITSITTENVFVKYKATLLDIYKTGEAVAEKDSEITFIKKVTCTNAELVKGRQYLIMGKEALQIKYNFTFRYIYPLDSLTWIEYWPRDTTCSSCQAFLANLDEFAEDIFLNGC
# Tests used:
# human C3 [1] = molecular target: T2, human C3 (human, UniProt P01024); experiment: BLI
# human C3 [2] = molecular target: T2, human C3; experiment: BLI; remark: listed apart in the source
# human C5 W917S = human C5 W917S (human, UniProt P01031); experiment: BLI
# human C5 [3] = molecular target: T3, human C5 (human, UniProt P01031); experiment: BLI
# cynomolgus C5 = molecular target: T1, cynomolgus C5; experiment: BLI
# human C5 [4] = molecular target: T3, human C5; experiment: BLI; remark: listed apart in the source
# human C5 R885H = human C5 R885H (human, UniProt P01031); experiment: BLI
# human C5 [5] = molecular target: T3, human C5; experiment: BLI, bivalent
binder,measurement,setting,value
"C3S7 (antibody, V domains shown) VH: QVQLQESGGGLVQAGGSLRLSCAASGYIFTGVDMGWYRQAPGKEREFVAAISYGASTYYADSVKGRFTISRDNAKNTVYLQMNSLKPEDTAVYYCAASLSNTYLLDLFFRYWGQGTQVTVSS",binding result,human C3 [1],no binding
"C5S2.2 (antibody, V domains shown) VH: EVQLVESGGGLVQAGGSLRLSCAASGNIFHQSDMGWYRQAPGKEREFVAAIDYGTNTYYADSVKGRFTISRDNSKNTLYLQMNSLRPEDTAVYYCAARDTSYWDHVYWGQGTLVTVSS",binding result,human C3 [2],no binding
same,binding result,human C5 W917S,no binding
same,Kd,human C5 [3],12 nM
same,binding result,cynomolgus C5,no binding
same,Kd,human C5 [4],12 nM
same,binding result,human C5 R885H,no binding
"C5S2.2-Fc (antibody, V domains shown) VH: EVQLVESGGGLVQAGGSLRLSCAASGNIFHQSDMGWYRQAPGKEREFVAAIDYGTNTYYADSVKGRFTISRDNSKNTLYLQMNSLRPEDTAVYYCAARDTSYWDHVYWGQGTLVTVSS",Kd,human C5 [5],0.654 nM
